The target of test [1] is T1, bovine serum albumin (bovine, UniProt P02769 25-607).
T1 construct: also called BSA
Description: Fab ELISA, purified Fab 5 ug/ml on immobilised BSA, anti-Flag-HRP, A450. On the procedure: FIG. 10 is a graph showing absorbance values of Fab ELISAs with additional αKlotho antibodies. Purified Fabs [5 ug/ml] were incubated with immobilized αKlotho (1 ug/ml) or bovine serum albumin (BSA), as a negative control. After washing off unbound Fab, bound Fab were detected using an HRP-conjugated anti-Flag anti-body (Fabs have Flag-tag on the light chain). Colorimetric HRP reagents allow for absorbance readings at 450 nm.
A general note: ELISA stands for enzyme-linked immunosorbent assay.

Test [2] concerns the target T2, extracellular domain (ECD) of human αKlotho, amino acids E34-S981 with C-terminal 6-His tag (R&D Systems … (human, UniProt Q9UEF7 34-981)).
T2 construct: range 34-981; also called αKlotho (aa34-981); target antigen
T2 sequence: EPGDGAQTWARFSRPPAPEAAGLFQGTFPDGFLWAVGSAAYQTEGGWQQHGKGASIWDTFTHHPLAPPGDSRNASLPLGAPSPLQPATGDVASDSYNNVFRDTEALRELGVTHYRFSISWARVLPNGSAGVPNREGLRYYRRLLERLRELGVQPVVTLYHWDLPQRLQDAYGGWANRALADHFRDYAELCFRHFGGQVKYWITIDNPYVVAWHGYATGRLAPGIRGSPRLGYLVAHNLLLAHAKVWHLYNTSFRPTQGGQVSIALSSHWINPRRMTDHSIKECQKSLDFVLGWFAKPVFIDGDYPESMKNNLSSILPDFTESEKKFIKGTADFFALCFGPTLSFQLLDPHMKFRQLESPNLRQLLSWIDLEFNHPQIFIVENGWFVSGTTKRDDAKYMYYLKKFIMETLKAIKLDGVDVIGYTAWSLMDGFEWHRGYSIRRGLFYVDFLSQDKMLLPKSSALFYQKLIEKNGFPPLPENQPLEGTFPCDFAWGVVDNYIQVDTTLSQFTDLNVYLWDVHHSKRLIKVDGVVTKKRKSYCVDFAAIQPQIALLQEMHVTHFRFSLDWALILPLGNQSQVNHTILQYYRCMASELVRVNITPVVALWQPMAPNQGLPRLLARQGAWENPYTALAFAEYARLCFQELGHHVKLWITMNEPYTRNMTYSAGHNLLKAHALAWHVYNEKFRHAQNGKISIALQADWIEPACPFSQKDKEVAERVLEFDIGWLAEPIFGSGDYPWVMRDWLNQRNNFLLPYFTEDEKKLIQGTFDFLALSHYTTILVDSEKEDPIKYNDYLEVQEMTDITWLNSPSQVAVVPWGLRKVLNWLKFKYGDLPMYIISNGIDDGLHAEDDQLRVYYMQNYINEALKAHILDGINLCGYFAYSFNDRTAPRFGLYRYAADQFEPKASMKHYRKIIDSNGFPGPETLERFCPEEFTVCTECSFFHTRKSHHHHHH
The test is described as follows: SPR, Fab captured by anti-H+L antibody, αKlotho injected. Here is the method:
(§1) Affinity estimates for each of the antibodies were determined by surface plasmon resonance (SPR). Fabs were immobilized using an anti-H+L antibody and serial dilutions of αKlotho were injected.
A general note: In SPR one partner is held on a chip, and binding of the other changes the refractive index at the surface.

The target in test [3] is T2, extracellular domain (ECD) of human …. The test is described as follows: SPR, Fab captured by anti-H+L IgG, αKlotho injected at 50 to 6.25 ug/ml, Langmuir fit [continued]. Here is the method: as §1

The values below come from patent publication US20190041402A1 (GOVERNING COUNCIL OF THE UNIVERSITY OF TORONTO, published 2019).

The term Kd denotes the constant that tells how readily two partners part at equilibrium. A low value points to a tighter complex. The term koff denotes the rate constant with which the complex falls apart. Read a high koff as fast dissociation. As usually defined, the kon is the rate constant with which the complex forms. Read a high kon as fast association.

T1 sequence (P02769 25-607 limits assumed): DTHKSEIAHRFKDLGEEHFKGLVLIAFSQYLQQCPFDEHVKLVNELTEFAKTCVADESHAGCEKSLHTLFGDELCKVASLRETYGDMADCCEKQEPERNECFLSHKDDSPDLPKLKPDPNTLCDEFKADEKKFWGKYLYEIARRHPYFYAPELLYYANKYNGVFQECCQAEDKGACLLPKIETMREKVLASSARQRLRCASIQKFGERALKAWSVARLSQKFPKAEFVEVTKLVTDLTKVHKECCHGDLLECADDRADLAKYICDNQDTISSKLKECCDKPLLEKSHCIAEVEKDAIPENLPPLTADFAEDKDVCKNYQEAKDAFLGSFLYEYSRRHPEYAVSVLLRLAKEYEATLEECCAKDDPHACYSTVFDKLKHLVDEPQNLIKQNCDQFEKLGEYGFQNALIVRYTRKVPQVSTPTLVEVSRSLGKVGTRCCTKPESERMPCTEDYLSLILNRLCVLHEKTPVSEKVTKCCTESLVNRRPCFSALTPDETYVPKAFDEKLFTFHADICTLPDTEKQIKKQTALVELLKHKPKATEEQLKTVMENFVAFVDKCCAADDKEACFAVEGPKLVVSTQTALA

B1: anti-αKlotho Fab clone 4829 (Fab, V domains shown)
VH: EVQLVESGGGLVQPGGSLRLSCAASGFNISSYYIHWVRQAPGKGLEWVASIYSSYGYTSYADSVKGRFTISADTSKNTAYLQMNSLRAEDTAVYYCARYSWSPYWWWAYSGLDYWGQGTLVTVSS
VL: DIQMTQSPSSLSASVGDRVTITCRASQSVSSAVAWYQQKPGKAPKLLIYSASSLYSGVPSRFSGSRSGTDFTLTISSLQPEDFATYYCQQGGGLITFGQGTKVEIKR
notes: Fab (also as Fab-phage); FLAG tag on light chain; also called sb198
For the molecule B1, in test [1], the binding result is reported as “no binding (tested: 5 ug/ml)”. In test [2], this molecule displayed a Kd of 1.8 nM. In addition, in test [3], binding was put at a Kd of 0.907 nM, the koff was 0.000614 s⁻¹ and the kon amounted to 678000 M⁻¹ s⁻¹.

B2: anti-αKlotho Fab clone 4830 (Fab, V domains shown)
VH: EVQLVESGGGLVQPGGSLRLSCAASGFNIYYSSIHWVRQAPGKGLEWVASIYPYYSYTYYADSVKGRFTISADTSKNTAYLQMNSLRAEDTAVYYCARSVASALDYWGQGTLVTVSS
VL: DIQMTQSPSSLSASVGDRVTITCRASQSVSSAVAWYQQKPGKAPKLLIYSASSLYSGVPSRFSGSRSGTDFTLTISSLQPEDFATYYCQQYSWYWYSPITFGQGTKVEIKR
notes: Fab (also as Fab-phage); FLAG tag on light chain; also called sb199
Regarding B2, in test [1], the binding result is “no binding (tested: 5 ug/ml)”. Also, the dissociation constant Kd in test [2] was 2.9 nM. In test [3], this molecule registered a Kd of 1.53 nM, a koff of 0.00113 s⁻¹ and a kon of 741000 M⁻¹ s⁻¹.

B3: anti-αKlotho Fab clone 4833 (Fab, V domains shown)
VH: EVQLVESGGGLVQPGGSLRLSCAASGFNLSSYYMHWVRQAPGKGLEWVASIYPSYSSTYYADSVKGRFTISADTSKNTAYLQMNSLRAEDTAVYYCARSSYSVYFWWYVSAMDYWGQGTLVTVSS
VL: DIQMTQSPSSLSASVGDRVTITCRASQSVSSAVAWYQQKPGKAPKLLIYSASSLYSGVPSRFSGSRSGTDFTLTISSLQPEDFATYYCQQSSHGHYPITFGQGTKVEIKR
notes: Fab (also as Fab-phage); FLAG tag on light chain; also called sb202
For B3, the binding result in test [1] is “no binding (tested: 5 ug/ml)”. Moreover, the Kd in test [2] was 1.4 nM. For the same molecule, in test [3], the Kd amounted to 0.703 nM, the koff was 0.000519 s⁻¹ and the kon worked out at 739000 M⁻¹ s⁻¹.

B4: anti-αKlotho Fab clone 4823 (Fab, V domains shown)
VH: EVQLVESGGGLVQPGGSLRLSCAASGFNFSSSSIHWVRQAPGKGLEWVAYIYSSYGYTYYADSVKGRFTISADTSKNTAYLQMNSLRAEDTAVYYCARAAHYGYYVHSGLDYWGQGTLVTVSS
VL: DIQMTQSPSSLSASVGDRVTITCRASQSVSSAVAWYQQKPGKAPKLLIYSASSLYSGVPSRFSGSRSGTDFTLTISSLQPEDFATYYCQQSSYSLITFGQGTKVEIKR
notes: Fab (also as Fab-phage); FLAG tag on light chain; also called sb192
B4: in test [1], the binding result was “no binding (tested: 5 ug/ml)”. The molecule further registered a Kd in test [2] of 1.6 nM. In test [3], this molecule showed a Kd of 0.991 nM, a koff of 0.000744 s⁻¹ and a kon of 750000 M⁻¹ s⁻¹.

B5: anti-αKlotho Fab clone 4832 (Fab, V domains shown)
VH: EVQLVESGGGLVQPGGSLRLSCAASGFNFSSSSIHWVRQAPGKGLEWVAYISSSYGYTSYADSVKGRFTISADTSKNTAYLQMNSLRAEDTAVYYCARASGWFSHFYPAAVSGMDYWGQGTLVTVSS
VL: DIQMTQSPSSLSASVGDRVTITCRASQSVSSAVAWYQQKPGKAPKLLIYSASSLYSGVPSRFSGSRSGTDFTLTISSLQPEDFATYYCQQSSYSLITFGQGTKVEIKR
notes: Fab (also as Fab-phage); FLAG tag on light chain; also called sb201
On to B5, for which the binding result in test [1] is reported as “no binding (tested: 5 ug/ml)”. In test [2], this molecule registered a Kd of 0.515 nM. Moreover, in test [3], the equilibrium dissociation constant (Kd) amounted to 0.123 nM, the off-rate (koff) was found to be 4.61e-05 s⁻¹ and the kon amounted to 374000 M⁻¹ s⁻¹.

B6: anti-αKlotho Fab clone 4828 (Fab, V domains shown)
VH: EVQLVESGGGLVQPGGSLRLSCAASGFNFSSSSIHWVRQAPGKGLEWVASISSSYGYTYYADSVKGRFTISADTSKNTAYLQMNSLRAEDTAVYYCARYVVGGWWYHYGMDYWGQGTLVTVSS
VL: DIQMTQSPSSLSASVGDRVTITCRASQSVSSAVAWYQQKPGKAPKLLIYSASSLYSGVPSRFSGSRSGTDFTLTISSLQPEDFATYYCQQSSYSLITFGQGTKVEIKR
notes: Fab (also as Fab-phage); FLAG tag on light chain; also called sb197
Consider B6, for which the binding result in test [1] is listed as “no binding (tested: 5 ug/ml)”. Further, in test [2], the Kd came out at 4.9 nM. Also, in test [3], the Kd was 2.48 nM, the koff amounted to 0.000782 s⁻¹ and the kon worked out at 315000 M⁻¹ s⁻¹.
